Reference: IntAct's records for PubMed 31515488

B1: Progranulin (Homo sapiens), P28799 (parent)
chain: MWTLVSWVALTAGLVAGTRCPDGQFCPVACCLDPGGASYSCCRPLLDKWPTTLSRHLGGPCQVDAHCSAGHSCIFTVSGTSSCCPFPEAVACGDGHHCCPRGFHCSADGRSCFQRSGNNSVGAIQCPDSQFECPDFSTCCVMVDGSWGCCPMPQASCCEDRVHCCPHGAFCDLVHTRCITPTGTHPLAKKLPAQRTNRAVALSSSVMCPDARSRCPDGSTCCELPSGKYGCCPMPNATCCSDHLHCCPQDTVCDLIQSKCLSKENATTDLLTKLPAHTVGDVKCDMEVSCPDGYTCCRLQSGAWGCCPFTQAVCCEDHIHCCPAGFTCDTQKGTCEQGPHQVPWMEKAPAHLSLPDPQALKRDVPCDNVSSCPSSDTCCQLTSGEWGCCPIPEAVCCSDHQHCCPQGYTCVAEGQCQRGSEIVAGLEKMPARRASLSHPRDIGCDQHTSCPVGQTCCPSLGGSWACCQLPHAVCCEDRQHCCPAGYTCNVKARSCEKEVVSAQPATFLARSPHVGVKDVECGEGHFCHDNQTCCRDNRQGWACCPYRQGVCCADRRHCCPAGFRCAARGTKCLRREAPRWDAPLRDPALRQLL
B2: Myotubularin-related protein 9 (Homo sapiens), Q96QG7 (parent)
chain: MEFAELIKTPRVDNVVLHRPFYPAVEGTLCLTGHHLILSSRQDNTEELWLLHSNIDAIDKRFVGSLGTIIIKCKDFRIIQLDIPGMEECLNIASSIEALSTLDSITLMYPFFYRPMFEVIEDGWHSFLPEQEFELYSSATSEWRLSYVNKEFAVCPSYPPIVTVPKSIDDEALRKVATFRHGGRFPVLSYYHKKNGMVIMRSGQPLTGTNGRRCKEDEKLINATLRAGKRGYIIDTRSLNVAQQTRAKGGGFEQEAHYPQWRRIHKSIERYHILQESLIKLVEACNDQTHNMDRWLSKLEASNWLTHIKEILTTACLAAQCIDREGASILIHGTEGTDSTLQVTSLAQIILEPRSRTIRGFEALIEREWLQAGHPFQQRCAQSAYCNTKQKWEAPVFLLFLDCVWQILRQFPCSFEFNENFLIMLFEHAYASQFGTFLGNNESERCKLKLQQKTMSLWSWVNQPSELSKFTNPLFEANNLVIWPSVAPQSLPLWEGIFLRWNRSSKYLDEAYEEMVNIIEYNKELQAKVNILRRQLAELETEDGMQESP

Variants of: B1
Details: with hxa1_human HOXA1, P49639
Chain of hxa1_human HOXA1, P49639 (P49639 whole entry): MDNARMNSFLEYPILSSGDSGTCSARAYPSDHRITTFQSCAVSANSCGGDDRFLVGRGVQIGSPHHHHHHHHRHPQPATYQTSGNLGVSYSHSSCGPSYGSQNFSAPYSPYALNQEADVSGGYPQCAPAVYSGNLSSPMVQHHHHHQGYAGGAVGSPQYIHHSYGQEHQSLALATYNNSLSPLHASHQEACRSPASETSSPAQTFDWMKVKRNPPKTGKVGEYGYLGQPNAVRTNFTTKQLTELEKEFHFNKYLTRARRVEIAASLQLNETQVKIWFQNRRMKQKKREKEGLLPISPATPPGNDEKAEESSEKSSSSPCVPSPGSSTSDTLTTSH

Row | Variant | effect of a mutation on the interaction
1 | MWTLVSWVALTAGLVAGTRCPDGQFCPVACCLDPGGASYSCCRPLLDKWPTTLSRHLGGPCQVDAHCSAGHSCIFTVSGTSSCCPFPEAVACGDGHHCCPRGFHCSADGRSCFQRSGNNSVGAIQCPDSQFECPDFSTCCVMVDGSWGCCPMPQASCCEDRVHCCPHGAFCDLVHTRCITPTGTHPLAKKLPAQRTNRAVALSSSVMCPDARSRCPDGSTCCELPSGKYGCCPMPNATCCSDHLHCCPQDTVCDLIQSKCLSKENATTDLLTKLPAHTVGDVKCDMEVSCPDGYTCCRLQSGAWGCCPFTQAVCCEDHIHCCPAGFTCDTQKGTCEQGPHQVPWMEKAPAHLSLPDPQALKRDVPCDNVSSCPSSDTCCQLTSGEWGCCPIPEAVCCSDHQHCCPQGYTCVAEGQCQRGSEIVAGLEKMPARRASLSHPRDIGCDQHTSCPVGQTCCPSLGGSWACCQLPHAVCCEDRQHCCPAGYTCNVKARSCEKEVVSAQPATFLARSPHVAVKDVECGEGHFCHDNQTCCRDNRQGWACCPYRQGVCCADRRHCCPAGFRCAARGTKCLRREAPRWDAPLRDPALRQLL [G515A] | with no effect
2 | MWTLVSWVALTAGLVAGTRCPDGQFCPVACCLDPGGASYSCCRPLLDKWPTTLSRHLGGPCQVDAHCSAGHSCIFTVSGTSSCCPFPEAVACGDGHHCCPRGFHCSADGRSCFQRSGNNSVGAIQCPDSQFECPDFSTCCVMVDGSWGCCPMPQASCCEDRVHCCPHGAFCDLVHTRCITPTGTHPLAKKLPAQRTNRAVALSSSVMCPDARSRCPDGSTCCELPSGKYGCCPMPNATCCSDHLHCCPQDTVCDLIQSKCLSKENATTDLLTKLPAHTVGDVKCDMEVSCPDGYTCCRLQSGAWGCCPFTQAVCCEDHIHCCPAGFTCDTQKGTCEQGPHQVPWMEKAPAHLSLPDPQALKRDVPCDNVSSCPSSDTCCQLTSGEWGCCPIPEAVCCSDHQHCCPQGYTCVAEGQCQRGSEIVAGLEKMPARWASLSHPRDIGCDQHTSCPVGQTCCPSLGGSWACCQLPHAVCCEDRQHCCPAGYTCNVKARSCEKEVVSAQPATFLARSPHVGVKDVECGEGHFCHDNQTCCRDNRQGWACCPYRQGVCCADRRHCCPAGFRCAARGTKCLRREAPRWDAPLRDPALRQLL [R433W] | with no effect

Variants of: B1
Details: with glrx3_human GLRX3, O76003
Chain of glrx3_human GLRX3, O76003 (O76003 whole entry): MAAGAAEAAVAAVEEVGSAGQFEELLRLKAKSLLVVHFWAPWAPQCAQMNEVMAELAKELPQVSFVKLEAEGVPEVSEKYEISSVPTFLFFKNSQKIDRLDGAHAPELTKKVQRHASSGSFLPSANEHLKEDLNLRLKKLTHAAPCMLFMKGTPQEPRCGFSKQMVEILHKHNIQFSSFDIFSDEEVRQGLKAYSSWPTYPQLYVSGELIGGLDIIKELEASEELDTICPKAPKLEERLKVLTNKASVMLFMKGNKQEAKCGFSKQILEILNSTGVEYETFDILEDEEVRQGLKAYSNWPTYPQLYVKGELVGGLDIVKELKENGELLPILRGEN

Row | Variant | effect of a mutation on the interaction
3 | MWTLVSWVALTAGLVAGTRCPDGQFCPVACCLDPGGASYSCCRPLLDKWPTTLSRHLGGPCQVDAHCSAGHSCIFTVSGTSSCCPFPEAVACGDGHHCCPRGFHCSADGRSCFQRSGNNSVGAIQCPDSQFECPDFSTCCVMVDGSWGCCPMPQASCCEDRVHCCPHGAFCDLVHTRCITPTGTHPLAKKLPAQRTNRAVALSSSVMCPDARSRCPDGSTCCELPSGKYGCCPMPNATCCSDHLHCCPQDTVCDLIQSKCLSKENATTDLLTKLPAHTVGDVKCDMEVSCPDGYTCCRLQSGAWGCCPFTQAVCCEDHIHCCPAGFTCDTQKGTCEQGPHQVPWMEKAPAHLSLPDPQALKRDVPCDNVSSCPSSDTCCQLTSGEWGCCPIPEAVCCSDHQHCCPQGYTCVAEGQCQRGSEIVAGLEKMPARRASLSHPRDIGCDQHTSCPVGQTCCPSLGGSWACCQLPHAVCCEDRQHCCPAGYTCNVKARSCEKEVVSAQPATFLARSPHVAVKDVECGEGHFCHDNQTCCRDNRQGWACCPYRQGVCCADRRHCCPAGFRCAARGTKCLRREAPRWDAPLRDPALRQLL [G515A] | with no effect
4 | MWTLVSWVALTAGLVAGTRCPDGQFCPVACCLDPGGASYSCCRPLLDKWPTTLSRHLGGPCQVDAHCSAGHSCIFTVSGTSSCCPFPEAVACGDGHHCCPRGFHCSADGRSCFQRSGNNSVGAIQCPDSQFECPDFSTCCVMVDGSWGCCPMPQASCCEDRVHCCPHGAFCDLVHTRCITPTGTHPLAKKLPAQRTNRAVALSSSVMCPDARSRCPDGSTCCELPSGKYGCCPMPNATCCSDHLHCCPQDTVCDLIQSKCLSKENATTDLLTKLPAHTVGDVKCDMEVSCPDGYTCCRLQSGAWGCCPFTQAVCCEDHIHCCPAGFTCDTQKGTCEQGPHQVPWMEKAPAHLSLPDPQALKRDVPCDNVSSCPSSDTCCQLTSGEWGCCPIPEAVCCSDHQHCCPQGYTCVAEGQCQRGSEIVAGLEKMPARWASLSHPRDIGCDQHTSCPVGQTCCPSLGGSWACCQLPHAVCCEDRQHCCPAGYTCNVKARSCEKEVVSAQPATFLARSPHVGVKDVECGEGHFCHDNQTCCRDNRQGWACCPYRQGVCCADRRHCCPAGFRCAARGTKCLRREAPRWDAPLRDPALRQLL [R433W] | with no effect

Variants of: B1
Details: with sgta_human SGTA

Row | Variant | effect of a mutation on the interaction
5 | MWTLVSWVALTAGLVAGTWCPDGQFCPVACCLDPGGASYSCCRPLLDKWPTTLSRHLGGPCQVDAHCSAGHSCIFTVSGTSSCCPFPEAVACGDGHHCCPRGFHCSADGRSCFQRSGNNSVGAIQCPDSQFECPDFSTCCVMVDGSWGCCPMPQASCCEDRVHCCPHGAFCDLVHTRCITPTGTHPLAKKLPAQRTNRAVALSSSVMCPDARSRCPDGSTCCELPSGKYGCCPMPNATCCSDHLHCCPQDTVCDLIQSKCLSKENATTDLLTKLPAHTVGDVKCDMEVSCPDGYTCCRLQSGAWGCCPFTQAVCCEDHIHCCPAGFTCDTQKGTCEQGPHQVPWMEKAPAHLSLPDPQALKRDVPCDNVSSCPSSDTCCQLTSGEWGCCPIPEAVCCSDHQHCCPQGYTCVAEGQCQRGSEIVAGLEKMPARRASLSHPRDIGCDQHTSCPVGQTCCPSLGGSWACCQLPHAVCCEDRQHCCPAGYTCNVKARSCEKEVVSAQPATFLARSPHVGVKDVECGEGHFCHDNQTCCRDNRQGWACCPYRQGVCCADRRHCCPAGFRCAARGTKCLRREAPRWDAPLRDPALRQLL [R19W] | with no effect

Variants of: B1
Details: with otx1_human OTX1, P32242
Chain of otx1_human OTX1, P32242 (P32242 whole entry): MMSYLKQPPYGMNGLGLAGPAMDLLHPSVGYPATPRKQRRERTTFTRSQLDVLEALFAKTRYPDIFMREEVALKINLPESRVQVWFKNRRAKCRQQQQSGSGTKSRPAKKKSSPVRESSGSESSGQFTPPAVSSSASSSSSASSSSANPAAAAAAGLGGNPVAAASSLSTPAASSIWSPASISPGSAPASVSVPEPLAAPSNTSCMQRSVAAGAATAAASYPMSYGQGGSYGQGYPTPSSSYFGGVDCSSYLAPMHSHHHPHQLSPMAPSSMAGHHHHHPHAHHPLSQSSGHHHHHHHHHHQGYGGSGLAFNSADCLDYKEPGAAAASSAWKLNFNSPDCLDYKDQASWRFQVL

Row | Variant | effect of a mutation on the interaction
6 | MWTLVSWVALTAGLVAGTWCPDGQFCPVACCLDPGGASYSCCRPLLDKWPTTLSRHLGGPCQVDAHCSAGHSCIFTVSGTSSCCPFPEAVACGDGHHCCPRGFHCSADGRSCFQRSGNNSVGAIQCPDSQFECPDFSTCCVMVDGSWGCCPMPQASCCEDRVHCCPHGAFCDLVHTRCITPTGTHPLAKKLPAQRTNRAVALSSSVMCPDARSRCPDGSTCCELPSGKYGCCPMPNATCCSDHLHCCPQDTVCDLIQSKCLSKENATTDLLTKLPAHTVGDVKCDMEVSCPDGYTCCRLQSGAWGCCPFTQAVCCEDHIHCCPAGFTCDTQKGTCEQGPHQVPWMEKAPAHLSLPDPQALKRDVPCDNVSSCPSSDTCCQLTSGEWGCCPIPEAVCCSDHQHCCPQGYTCVAEGQCQRGSEIVAGLEKMPARRASLSHPRDIGCDQHTSCPVGQTCCPSLGGSWACCQLPHAVCCEDRQHCCPAGYTCNVKARSCEKEVVSAQPATFLARSPHVGVKDVECGEGHFCHDNQTCCRDNRQGWACCPYRQGVCCADRRHCCPAGFRCAARGTKCLRREAPRWDAPLRDPALRQLL [R19W] | with no effect

Variants of: B2
Details: with lnx1_human LNX1, Q8TBB1
Chain of lnx1_human LNX1, Q8TBB1 (Q8TBB1 whole entry): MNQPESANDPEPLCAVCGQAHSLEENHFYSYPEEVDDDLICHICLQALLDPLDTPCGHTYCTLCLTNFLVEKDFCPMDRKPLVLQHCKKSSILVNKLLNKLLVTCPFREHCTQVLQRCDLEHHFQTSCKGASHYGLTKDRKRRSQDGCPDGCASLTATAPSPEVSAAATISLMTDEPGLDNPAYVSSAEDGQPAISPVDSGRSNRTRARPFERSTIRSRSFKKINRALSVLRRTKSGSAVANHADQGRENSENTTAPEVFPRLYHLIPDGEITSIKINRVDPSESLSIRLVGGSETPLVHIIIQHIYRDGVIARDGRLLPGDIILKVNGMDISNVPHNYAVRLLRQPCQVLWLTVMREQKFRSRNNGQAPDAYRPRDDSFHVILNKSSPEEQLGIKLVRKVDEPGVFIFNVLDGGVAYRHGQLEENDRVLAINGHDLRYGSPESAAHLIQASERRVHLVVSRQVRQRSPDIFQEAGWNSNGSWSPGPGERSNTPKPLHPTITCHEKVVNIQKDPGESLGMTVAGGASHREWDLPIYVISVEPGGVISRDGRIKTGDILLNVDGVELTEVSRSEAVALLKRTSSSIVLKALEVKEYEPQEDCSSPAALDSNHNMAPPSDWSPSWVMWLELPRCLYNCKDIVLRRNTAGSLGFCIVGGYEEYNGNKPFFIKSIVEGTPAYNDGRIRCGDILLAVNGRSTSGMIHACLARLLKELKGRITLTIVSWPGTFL

Row | Variant | effect of a mutation on the interaction
7 | MEFAELIKTPRVDNVVLHRPFYPAVEGTLCLTGHHLILSSRQDNTEELWLLHSNIDAIDKRFVGSLGTIIIKCKDFRIIQLDIPGMEECLNIASSIEALSTLDSITLMYPFFYRPMFEVIEDGWHCFLPEQEFELYSSATSEWRLSYVNKEFAVCPSYPPIVTVPKSIDDEALRKVATFRHGGRFPVLSYYHKKNGMVIMRSGQPLTGTNGRRCKEDEKLINATLRAGKRGYIIDTRSLNVAQQTRAKGGGFEQEAHYPQWRRIHKSIERYHILQESLIKLVEACNDQTHNMDRWLSKLEASNWLTHIKEILTTACLAAQCIDREGASILIHGTEGTDSTLQVTSLAQIILEPRSRTIRGFEALIEREWLQAGHPFQQRCAQSAYCNTKQKWEAPVFLLFLDCVWQILRQFPCSFEFNENFLIMLFEHAYASQFGTFLGNNESERCKLKLQQKTMSLWSWVNQPSELSKFTNPLFEANNLVIWPSVAPQSLPLWEGIFLRWNRSSKYLDEAYEEMVNIIEYNKELQAKVNILRRQLAELETEDGMQESP [S126C] | disrupting interaction strength

Variants of: B2
Details: with emil1_human EMILIN1, Q9Y6C2
Chain of emil1_human EMILIN1, Q9Y6C2 (Q9Y6C2 whole entry): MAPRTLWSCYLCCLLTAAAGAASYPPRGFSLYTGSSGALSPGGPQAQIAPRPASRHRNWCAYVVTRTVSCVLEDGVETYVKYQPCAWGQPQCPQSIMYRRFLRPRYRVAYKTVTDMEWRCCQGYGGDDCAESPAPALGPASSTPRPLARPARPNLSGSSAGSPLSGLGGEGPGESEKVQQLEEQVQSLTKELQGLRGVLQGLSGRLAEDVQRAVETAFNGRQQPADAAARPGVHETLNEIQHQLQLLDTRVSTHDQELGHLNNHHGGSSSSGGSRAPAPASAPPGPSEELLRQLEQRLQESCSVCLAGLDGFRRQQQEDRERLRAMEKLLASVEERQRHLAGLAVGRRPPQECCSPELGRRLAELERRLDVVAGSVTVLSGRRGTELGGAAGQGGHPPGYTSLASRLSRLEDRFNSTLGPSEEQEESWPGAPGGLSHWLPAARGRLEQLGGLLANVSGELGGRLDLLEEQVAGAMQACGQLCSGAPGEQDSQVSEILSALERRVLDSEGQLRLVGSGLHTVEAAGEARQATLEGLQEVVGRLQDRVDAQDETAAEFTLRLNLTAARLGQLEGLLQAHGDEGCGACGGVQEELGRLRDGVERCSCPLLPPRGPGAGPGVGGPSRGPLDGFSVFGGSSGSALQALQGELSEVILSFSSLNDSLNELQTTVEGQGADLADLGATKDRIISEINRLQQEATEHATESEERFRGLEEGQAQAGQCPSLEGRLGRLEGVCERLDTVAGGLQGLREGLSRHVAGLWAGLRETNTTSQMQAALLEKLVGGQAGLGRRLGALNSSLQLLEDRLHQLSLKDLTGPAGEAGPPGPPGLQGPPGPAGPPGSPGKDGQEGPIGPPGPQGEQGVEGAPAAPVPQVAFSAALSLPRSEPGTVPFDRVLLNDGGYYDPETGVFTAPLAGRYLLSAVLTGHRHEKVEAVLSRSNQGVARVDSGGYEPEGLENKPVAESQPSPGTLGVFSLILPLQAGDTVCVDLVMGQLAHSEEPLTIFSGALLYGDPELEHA

Row | Variant | effect of a mutation on the interaction
8 | MEFAELIKTPRVDNVVLHRPFYPAVEGTLCLTGHHLILSSRQDNTEELWLLHSNIDAIDKRFVGSLGTIIIKCKDFRIIQLDIPGMEECLNIASSIEALSTLDSITLMYPFFYRPMFEVIEDGWHCFLPEQEFELYSSATSEWRLSYVNKEFAVCPSYPPIVTVPKSIDDEALRKVATFRHGGRFPVLSYYHKKNGMVIMRSGQPLTGTNGRRCKEDEKLINATLRAGKRGYIIDTRSLNVAQQTRAKGGGFEQEAHYPQWRRIHKSIERYHILQESLIKLVEACNDQTHNMDRWLSKLEASNWLTHIKEILTTACLAAQCIDREGASILIHGTEGTDSTLQVTSLAQIILEPRSRTIRGFEALIEREWLQAGHPFQQRCAQSAYCNTKQKWEAPVFLLFLDCVWQILRQFPCSFEFNENFLIMLFEHAYASQFGTFLGNNESERCKLKLQQKTMSLWSWVNQPSELSKFTNPLFEANNLVIWPSVAPQSLPLWEGIFLRWNRSSKYLDEAYEEMVNIIEYNKELQAKVNILRRQLAELETEDGMQESP [S126C] | with no effect
